The values that follow come from patent publication US20250116658.

The test system of data set [1] is Thrb protease cleavable linker LVPRGSG, synthetic peptide fluorogenic probe.
In data set [2] the test system is GzmB protease cleavable linker IEFDSG, synthetic peptide fluorogenic probe.
The test system of data set [3] is MMP9 protease cleavable linker PLGLAG, synthetic peptide fluorogenic probe.
Data set [4] concerns Thrb substrate peptide (candidate 1) LVSPRSG, fluorogenic peptide.

In the case of Granzyme B (GzmB) protease, the “cleavage of synthetic peptide fluorogenic probe (non-corresponding pair: not cleaved)” value (shortened to “cleavage … (non-corresponding pair: not cleaved)”) in data set [1] and in data set [3] was “specific cleavage was shown by only the corresponding proteases” throughout. Further, the “cleavage of synthetic peptide fluorogenic probe (corresponding pair: cleaved)” value (“cleavage … (corresponding pair: cleaved)” below) in data set [2] is reported as “specific cleavage was shown by only the corresponding proteases”.
Turning to matrix metallopeptidase 9 (MMP9), the “cleavage … (non-corresponding pair: not cleaved)” value in data set [1] and in data set [2] was “specific cleavage was shown by only the corresponding proteases” each time. Further, the “cleavage … (corresponding pair: cleaved)” value in data set [3] is reported as “specific cleavage was shown by only the corresponding proteases”.
For the substance Thrombin (Thrb) protease, the “cleavage … (corresponding pair: cleaved)” value in data set [1] is on record as “specific cleavage was shown by only the corresponding proteases”. Also, the “cleavage … (non-corresponding pair: not cleaved)” value in data set [2] and in data set [3] was “specific cleavage was shown by only the corresponding proteases” each time. In addition, the “cleavage activity in fluorogenic assay” value in data set [4] is given as “showed higher cleavage activity than the original Thrb cleavable sequence design (LVPRGSG (SEQ ID NO: 23))”.
